Positions count from the first letter of the chain named. Names and notes keep the numbering of the source.
Experiments:
purified protein [1] = substrate: CCc1c2c(nc3ccc(OC(=O)N4CCC(N)CC4)cc13)-c1cc3c(c(=O)n1C2)COC(=O)[C@]3(O)CC; assay: purified protein; details: 5-200 uM substrate, 50 mM HEPES pH 7.4, 37 °C, 10 h
purified protein [2] = substrate: CCCCCC(=O)Oc1ccc([N+](=O)[O-])cc1; assay: purified protein; assay type: biochemical, Altericroceibacterium indicum; details: Tris-HCl pH 7.5, 45 °C
purified protein [3] = substrate: CCCC(=O)Oc1ccc([N+](=O)[O-])cc1; assay: purified protein; assay type: biochemical, Altericroceibacterium indicum; details: Tris-HCl pH 7.5, 45 °C
HPLC of SN38 formation [4] = substrate: CCc1c2c(nc3ccc(OC(=O)N4CCC(N)CC4)cc13)-c1cc3c(c(=O)n1C2)COC(=O)[C@]3(O)CC; assay: HPLC of SN38 formation; assay type: biochemical, Altericroceibacterium indicum; details: 5-200 uM substrate, 50 mM HEPES pH 7.4, 37 °C, 10 h
Excerpt: (§1) HPLC of SN38 formation on E93 | the kinetic parameters for the conversion of CPT11 and NPC were obtained from the HPLC

HPLC of SN38 formation [5] = substrate: CCc1c2c(nc3ccc(OC(=O)N4CCC(N5CCCCC5)CC4)cc13)-c1cc3c(c(=O)n1C2)COC(=O)[C@]3(O)CC; assay: HPLC of SN38 formation; assay type: biochemical, Altericroceibacterium indicum; details: pH 7.4; 37.0 °C
Excerpt: as §1

B1: E93 (Altericroceibacterium indicum; E428A) (protein)
chain: MARTRYGPVIGKVEQGALAFKGIPYGAPTSGSGRFMPPTPPQPWSTPLRAFDYGPTAPQSDPQDALESGAADARESEDCLTLNVWTPSLNDQRKRPVMVWLHGGGLWRLSAAGDYQAGTHLAAHSDVVMVSPNHRLNVLAHAYLDEYDPAFAGSSSAGMLDLVLALKWVRDNIEEFGGDPDNVTIFGQSGGGQKVSFLMAMPAAAGLFHKAIIQSGPAPLALEKPYARELSARLLTLLDIPKNRVRDIQNVPLDAIMRAYYQIFEELGGFGVMGVIQDFAPVVDDVALPQHPFWNGASPLSRDVPLMIGCTRTEMTEYFLASNPGAAKRDFAAVTAQLEPVFGMQAPAVVAHYRATHPTASPWEVDALIRSDWPTRLFTQRIADEQVKLGGAPVWMYRMDWQTTARDGLLMSPHAIDIPFVLDTVGTAPVEPGQLAEQQRMMQQMNNAWVSFARNGNPQNKYIPPWQPYNSTSRPTMIFNLHSHMANDPDGSDLAFLKKDLANLEVVAGGVTH
Km (purified protein [1]): 85.07 ± 9.4 µM
kcat (purified protein [1]): 23.80 ± 2.34 ×10^-3 min^-1

B2: E93 (Altericroceibacterium indicum; Q193A) (protein)
chain: B1 chain with Q193A, A428E
notes: recombinant in E. coli BL21 (DE3), N-terminal His6-SUMO tag (pSMT3), Ni-NTA purified; 57 kDa; 510 residues modelled; catalytic triad S189, E314, H414
Km (purified protein [2]): 100 ± 10 µM

B3: E93 (Altericroceibacterium indicum; T375A) (protein)
chain: B1 chain with T375A, A428E
notes: as for B2
Km (purified protein [2]): 130 ± 10 µM

B4: E93 (Altericroceibacterium indicum; Y318A) (protein)
chain: B1 chain with Y318A, A428E
Km (purified protein [1]): 55.47 ± 5.17 µM
kcat (purified protein [1]): 40.87 ± 3.07 ×10^-3 min^-1

B5: E93 (Altericroceibacterium indicum; T375I) (protein)
chain: B1 chain with T375I, A428E
notes: as for B2
Km (purified protein [2]): 110 ± 10 µM
Km (purified protein [3]): 100 ± 10 µM

B6: E93 (Altericroceibacterium indicum) (protein)
chain: B1 chain with A428E
notes: as for B2
Km (purified protein [2]): 180 ± 11 µM
Km (purified protein [3]; 0.02-3.50 mM substrate): 210 ± 20 µM
Km (HPLC of SN38 formation [4]): 75.66 ± 6.03 µM
kcat (HPLC of SN38 formation [4]): 35.40 ± 1.70 ×10^-3 min^-1
Km (HPLC of SN38 formation [5]): 70.17 ± 7.07 µM

B7: E93 (Altericroceibacterium indicum; M273A) (protein)
chain: B1 chain with M273A, A428E
notes: as for B2
Km (purified protein [2]): 390 ± 25 µM

B8: E93 (Altericroceibacterium indicum; W107A) (protein)
chain: B1 chain with W107A, A428E
notes: as for B2
Km (purified protein [2]): 210 ± 18 µM
